Measurements reported in patent publication US7223902B1, “Method of producing recombinant Aspergillus niger β-glucosidase and an aroma spreading plant” (Yissum Research Development Company of the Hebrew …, priority 1999, dated 2007).

Legend:
[1] = molecular target: A. niger β-Glucosidase (BGL1); experiment: Inactivation of A. niger β-glucosidase by 2FGlcF, residual activity with DNPGlc; type: biochemical, Aspergillus niger; settings: 30 mM citrate buffer pH=4.8, 50° C., 0.5-6 mM inactivator
Method: Pure A. niger β-Glucosidase enzyme (0.47 mg/ml) was incubated in the presence of various concentrations of 2-deoxy-2-fluoro-β-glucosyl fluoride (2FGlcF, 0.5-6 mM) in 30 mM citrate buffer pH=4.8 at 50° C. Residual enzyme activity was determined at different time intervals by addition of an aliquot (10 μl) of the inactivation mixture, to a solution containing citrate buffer (30 mM, pH=4.8), BSA (8 μg) and 2,4-dinitrophenyl β-D-glucopyranoside (DNPGlc, 0.625 mM, 830 μl). Release of DNP was determined spectrophotometrically by measuring the absorbance at 400 nm one minute after the addition of the substrate.
Enzyme was incubated in the presence of various concentrations of 2FGlcF and residual enzyme activity was monitored at different time intervals.

[2] = tested on: 2-deoxy-2-fluoroglucosyl-BGL1; experiment: Reactivation of 2FGlcF-inactivated enzyme in the presence of linamarin; type: biochemical, Aspergillus niger; settings: linamarin 0-16 mM, pH=4.8, 50° C., 0, 10, 20 and 30 min
Method: Reactivation rates were determined as follows: pure A. niger β-glucosidase (0.34 mg/ml) was preincubated with 2FGlcF (5 mM) for 15 min, after which the excess of the inactivator was diafiltered by 20-kDa nominal molecular mass cutoff centrifugal concentrators (Sartorius Inc., Goettingen, Germany). Samples of the purified, inactivated enzyme were incubated in the presence linamarin (0-16 mM) in citrate buffer (30 mM, pH=4.8) at 50° C. for 0, 10, 20 and 30 minutes, and the activity of each sample was determined using p-nitrophenyl β-D-glucopyranoside (pNPGlc) as a substrate.
Rates of reactivation of 2-deoxy-2-fluoroglucosyl-BGL1 were determined in the presence of different concentrations of linamarin by monitoring activity regain after 0, 10, 20 and 30 min (FIG. 9).

[3] = SDS-PAGE activity gel staining (MUGlc) of transgenic tobacco plant extracts; type: biochemical, Nicotiana tabacum cv. Samson; settings: number of tobacco regenerates with BGL1 activity
Method: Detection of β-glucosidase in polyacrylamide gels was carried out by washing the SDS-polyacrylamide gel with 1:1 isopropanol:PC buffer to remove SDS and renature the enzyme. The gel was washed once in PC buffer and incubated in a thin layer of a solution of 0.5 mM MUGlc. After incubation at 50° C. for one hour, the active protein band was visualized by UV light.
Western blot (40) and SDS-PAGE activity gel staining (37) were employed to screen successful transgenic lines, using the purified A. niger BGL1 protein as positive controls and non-transgenic plant as negative control.

[4] = Determination of thermal stability of A. niger β-glucosidase (standard pNPGlc assay); type: physicochemical; settings: for % activity: percent of enzyme solution kept at 4° C., pH=5
Method: Determination of Thermal Stability of A. niger β-Glucosidase:
Recombinant enzyme (40 μg/ml) was dissolved in 20 mM citrate phosphate buffer, pH=5. Each tested sample (8 μl) was covered by 15 μl mineral oil. The activity was determined by the standard pNPGlc assay (7).
Thermal stability of the recombinant enzyme was evaluated at different temperatures, presented as percent enzymatic activity relative to an enzyme solution kept at 4° C. Results obtained are summarized in Table 2 and illustrated in FIG. 10.

[5] = Quantitative β-glucosidase assay using pNPGlc as a substrate; type: biochemical
Method: Quantitative assays were performed using pNPGlc as a substrate according to Shoseyov (7).

In the case of OC[C@H]1O[C@@H](F)[C@H](F)[C@@H](O)[C@@H]1O [2FGlcF, 2-deoxy-2-fluoro β-glucosyl fluoride], the KI (inactivation) [1] is reported as 35.4 mM and the “pseudo-first order rate constant Ki for inactivation” value [1] is reported as 4.5 min⁻¹.

With CC(C)(C#N)O[C@@H]1O[C@H](CO)[C@@H](O)[C@H](O)[C@H]1O [linamarin] the “regain of activity of 2-deoxy-2-fluoroglucosyl-BGL1” value [2] was “followed a first order process”.

B1: BGL1: BGL1 without a signal peptide expressed in tobacco plants (plasmid pJDB1, SEQ ID NO:14) (protein)
chain: DELAYSPPYYPSPWANGQGDWAQAYQRAVDIVSQMTLDEKVNLTTGTGWELELCVGQTGGVPRLGVPGMCLQDSPLGVRDSDYNSAFPAGMNVAATWDKNLAYLRGKAMGQEFSDKGADIQLGPAAGPLGRSPDGGRNWEGFSPDPALSGVLFAETIKGIQDAGVVATAKHYIAYEQEHFRQAPEAQGFGFNISESGSANLDDKTMHELYLWPFADAIRAGAGAVMCSYNQINNSYGCQNSYTLNKLLKAELGFQGFVMSDWAAHHAGVSGALAGLDMSMPGDVDYDSGTSYWGTNLTISVLNGTVPQWRVDDMAVRIMAAYYKVGRDRLWTPPNFSSWTRDEYGYKYYYVSEGPYEKVNQYVNVQRNHSELIRRIGADSTVLLKNDGALPLTGKERLVALIGEDAGSNPYGANGCSDRGCDNGTLAMGWGSGTANFPYLVTPEQAISNEVLKHKNGVFTATDNWAIDQIEALAKTASVSLVFVNADSGEGYINVDGNLGDRRNLTLWRNGDNVIKAAASNCNNTIVVIHSVGPVLVNEWYDNPNVTAILWGGLPGQESGNSLADVLYGRVNPGAKSPFTWGKTREAYQDYLVTEPNNGNGAPQEDFVEGVFIDYRGFDKRNETPIYEFGYGLSYTTFNYSNLEVQVLSAPAYEPASGETEAAPTFGEVGNASDYLYPSGLLRITKFIYPWLNGTDLEASSGDASYGQDSSDYLPEGATDGSAQPILPAGGGPGGNPRLYDELIRVSVTIKNTGKVAGDEVPQLYVSLGGPNEPKIVLRQFERITLQPSEETKWSTTLTRRDLANWNVEKQDWEITSYPKMVFVGSSSRKLPLRASLPTVH
Work on B1 yielded an Activity gel positive [3] of 0.

B2: recombinant BGL1: Recombinant Aspergillus niger B1 β-glucosidase (SEQ ID NO:2) expressed from bgl1 cDNA in P. pastoris, S. cerevisiae or E. coli (protein)
chain: MRFTLIEAVALTAVSLASADELAYSPPYYPSPWANGQGDWAQAYQRAVDIVSQMTLDEKVNLTTGTGWELELCVGQTGGVPRLGVPGMCLQDSPLGVRDSDYNSAFPAGMNVAATWDKNLAYLRGKAMGQEFSDKGADIQLGPAAGPLGRSPDGGRNWEGFSPDPALSGVLFAETIKGIQDAGVVATAKHYIAYEQEHFRQAPEAQGFGFNISESGSANLDDKTMHELYLWPFADAIRAGAGAVMCSYNQINNSYGCQNSYTLNKLLKAELGFQGFVMSDWAAHHAGVSGALAGLDMSMPGDVDYDSGTSYWGTNLTISVLNGTVPQWRVDDMAVRIMAAYYKVGRDRLWTPPNFSSWTRDEYGYKYYYVSEGPYEKVNQYVNVQRNHSELIRRIGADSTVLLKNDGALPLTGKERLVALIGEDAGSNPYGANGCSDRGCDNGTLAMGWGSGTANFPYLVTPEQAISNEVLKHKNGVFTATDNWAIDQIEALAKTASVSLVFVNADSGEGYINVDGNLGDRRNLTLWRNGDNVIKAAASNCNNTIVVIHSVGPVLVNEWYDNPNVTAILWGGLPGQESGNSLADVLYGRVNPGAKSPFTWGKTREAYQDYLVTEPNNGNGAPQEDFVEGVFIDYRGFDKRNETPIYEFGYGLSYTTFNYSNLEVQVLSAPAYEPASGETEAAPTFGEVGNASDYLYPSGLLRITKFIYPWLNGTDLEASSGDASYGQDSSDYLPEGATDGSAQPILPAGGGPGGNPRLYDELIRVSVTIKNTGKVAGDEVPQLYVSLGGPNEPKIVLRQFERITLQPSEETKWSTTLTRRDLANWNVEKQDWEITSYPKMVFVGSSSRKLPLRASLPTVH
modifications: Aspergillus niger
For B2, the “% activity” value ([4]; 4 °C) was 100%, the “% activity” value ([4]; 50 °C) was 91.5% and the “% activity” value ([4]; 55 °C) was 83.5%. For the same molecule, the “% activity” value ([4]; 60 °C) was 68%, the “% activity” value ([4]; 65 °C) was 17.8% and the “% activity retained” value ([4]; after 1 hour incubation at 60° C., percent activity of an enzyme kept at 4° C.) was 68%. For the same molecule, the activity maintained ([4]; temperature ranging from 4-60° C.) was “above 50%”, the β-glucosidase activity ([5]; overexpressed in E. coli, E. coli extracts) was “No apparent β-glucosidase activity could be detected” and the specific activity ([5]; secreted by P. pastoris to the medium, without further purification) was 124 units/mg protein.
